Data as given in PMC8024396, “Biochemical and structural characterization of the BioZ enzyme engaged in bacterial biotin synthesis pathway” (Nature Communications, 2021).

B1: Agrobacterium tumefaciens BioZ (enzyme, UniProt A0AA44F6N6 1-328, looked up)
chain: MQTRSSRMAGFGHAVPARCVRNAEIETRLGLEAGWIERRTGIRTRYWAQEGETLSGLAEKAGRMALENARIGAEDIALTLLATSTPDHLLPPSAPLLAHRLGLTQSGAIDLAGACSGFLYALTLADGFVRTHGRAVLVVAANILSRRINPAERATAVLFADAAGAVVLVPCRDAQRGLLSADLVSDGSGYDLIQIAAGGSSQPFSNDTEAEDTLMTMRDGREVFSRAVATMTQTSQRALQRAEMTATDIQRFLPHQANARMFDAVCGNIGIDRQKTVRTVETFGNSSAATIPLSLSVSNAERPITEGETLLLTAAGAGMTGGAVVYRG
notes: BioZ (FabH2), atypical beta-ketoacyl-ACP synthase III of Agrobacterium tumefaciens; bioZ gene cloned into pET28a; apparent mass ~36 kDa; 654 protein residues in the two protomers of PDB 6KUE; also called AtBioZ; FabH2; source: E. coli BL21 with pET28::atbioZ, purified (Ni-NTA, TEV cleavage, Superdex 200 Increase SEC); not shown: His6, N-terminal, cleaved
B2: glutaryl-ACP, P0A6A8 1-78 (natural protein)
chain: MSTIEERVKKIIGEQLGVKQEEVTNNASFVEDLGADSLDTVELVMALEEEFDTEIPDEEAEKITTVQAAIDYINGHQA
modifications: here or on the partner: glutaryl thioester on the phosphopantetheine (Ppan) of Serine 36
B3: malonyl-ACP, P0A6A8 1-78 (natural protein)
chain: B2 chain
modifications: here or on the partner: malonyl thioester on the phosphopantetheine (Ppan) of Serine 36
B4: E. coli holo-ACP, P0A6A8 1-78 (natural protein)
chain: B2 chain
modifications: here or on the partner: phosphopantetheine (Ppan) on Serine 36 (holo-ACP)

What was measured:
[1] = target: T1, AtBioZ (FabH2, beta-ketoacyl-ACP synthase III) (Agrobacterium fabrum, UniProt Q7CTU0, C115A); test: ITC (MicroCal PEAQ-ITC, […] °C), N = […]; type: binding
T1 construct: gene bioZ; purified BioZ(C115A)

[2] = target: the molecule itself; test: SEC; gel filtration of purified AtBioZ on Superdex 200 Increase 10/300; GF buffer (25 mM Tris-HCl pH 8.0, 100 mM NaCl, 2 mM DTT)
[3] = target: BioZ(C115A) mutant enzyme of Agrobacterium tumefaciens (Agrobacterium tumefaciens), A0AA44; test: ITC; MicroCal PEAQ-ITC, 25 °C; 50 μM BioZ(C115A) in the cell, 750 μM substrate in the syringe; 20 mM Tris pH 8.0, 150 mM NaCl; one binding-site model; three independent measurements; conditions: remark: other sources report otherwise

Molecule | Kd [1] | stoichiometry N [2] | Kd [3] | stoichiometry N [3]
CC(C)(COP(=O)(O)OP(=O)(O)OC[C@H]1O[C@@H](n2cnc3c(N)ncnc32)[C@H](O)[C@@H]1OP(=O)(O)O)[C@@H](O)C(=O)NCCC(=O)NCCSC(=O)CCCC(=O)O [glutaryl-CoA] | 2.64 ± 0.23 µM |  |  | 
B1 |  | 2 |  | 
B2 |  |  | 6.17 µM | 0.978
B3 |  |  | 24.1 µM | 0.996
B4 |  |  | 330 µM | 1
